This is an account of results in paper PMC4797280 (Nucleic Acids Research, 2016).

Read-outs that look alike come from different tables or passages of the source.

Common to all, as to assay: two-hybrid
Assay [1] concerns the target S. cerevisiae Mre11 (LexA-Mre11) (S. cerevisiae) (UniProt P32829).
The target is the same in assay [2]. The source holds these as a separate data set.
Assay [3] deals with T1, Mre11^P84S (LexA-Mre11^P84S) (S. cerevisiae, UniProt P32829 1-692, P84S).
T1 sequence (looked up): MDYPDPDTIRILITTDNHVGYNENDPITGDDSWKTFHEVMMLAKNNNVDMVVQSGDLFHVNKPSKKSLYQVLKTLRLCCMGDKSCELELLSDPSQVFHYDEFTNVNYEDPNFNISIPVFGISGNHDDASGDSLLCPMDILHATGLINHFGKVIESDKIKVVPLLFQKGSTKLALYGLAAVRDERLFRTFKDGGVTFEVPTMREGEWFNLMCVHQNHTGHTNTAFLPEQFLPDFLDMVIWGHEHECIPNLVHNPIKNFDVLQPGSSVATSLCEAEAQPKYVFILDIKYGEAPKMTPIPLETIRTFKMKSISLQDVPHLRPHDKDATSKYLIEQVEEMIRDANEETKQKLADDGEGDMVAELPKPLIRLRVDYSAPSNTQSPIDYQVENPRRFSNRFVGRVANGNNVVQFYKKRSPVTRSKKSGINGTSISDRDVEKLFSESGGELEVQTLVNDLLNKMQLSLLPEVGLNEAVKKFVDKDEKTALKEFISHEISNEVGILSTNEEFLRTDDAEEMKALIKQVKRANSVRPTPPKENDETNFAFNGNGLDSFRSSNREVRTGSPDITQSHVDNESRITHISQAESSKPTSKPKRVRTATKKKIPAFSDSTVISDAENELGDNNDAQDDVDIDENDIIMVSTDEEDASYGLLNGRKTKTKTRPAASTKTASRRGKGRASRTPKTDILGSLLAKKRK

For assay [4], the target named is T2, Mre11^T188I (LexA-Mre11^T188I) (S. cerevisiae, UniProt P32829 1-692, T188I).
T2 sequence (looked up): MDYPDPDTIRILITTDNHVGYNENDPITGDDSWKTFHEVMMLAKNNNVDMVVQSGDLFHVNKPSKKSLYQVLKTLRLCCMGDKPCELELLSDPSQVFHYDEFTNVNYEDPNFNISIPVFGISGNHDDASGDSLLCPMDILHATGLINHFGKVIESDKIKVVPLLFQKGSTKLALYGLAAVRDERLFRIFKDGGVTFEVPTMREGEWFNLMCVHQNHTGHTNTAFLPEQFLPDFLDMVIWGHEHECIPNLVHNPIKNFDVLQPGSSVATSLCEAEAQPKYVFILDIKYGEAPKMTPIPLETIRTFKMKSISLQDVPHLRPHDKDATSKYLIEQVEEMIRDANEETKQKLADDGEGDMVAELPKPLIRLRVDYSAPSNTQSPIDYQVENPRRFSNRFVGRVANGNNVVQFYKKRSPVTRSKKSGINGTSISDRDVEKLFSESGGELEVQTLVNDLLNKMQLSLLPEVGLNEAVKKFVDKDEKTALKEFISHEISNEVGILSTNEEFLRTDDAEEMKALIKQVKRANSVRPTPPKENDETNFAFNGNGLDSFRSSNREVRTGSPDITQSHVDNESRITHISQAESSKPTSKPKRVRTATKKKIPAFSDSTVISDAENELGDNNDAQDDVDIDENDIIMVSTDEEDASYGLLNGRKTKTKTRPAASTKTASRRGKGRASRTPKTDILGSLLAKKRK

In assay [5] the target is T3, Mre11^I158R (LexA-Mre11^I158R) (S. cerevisiae, UniProt P32829 1-692, I158R).
T3 sequence (looked up): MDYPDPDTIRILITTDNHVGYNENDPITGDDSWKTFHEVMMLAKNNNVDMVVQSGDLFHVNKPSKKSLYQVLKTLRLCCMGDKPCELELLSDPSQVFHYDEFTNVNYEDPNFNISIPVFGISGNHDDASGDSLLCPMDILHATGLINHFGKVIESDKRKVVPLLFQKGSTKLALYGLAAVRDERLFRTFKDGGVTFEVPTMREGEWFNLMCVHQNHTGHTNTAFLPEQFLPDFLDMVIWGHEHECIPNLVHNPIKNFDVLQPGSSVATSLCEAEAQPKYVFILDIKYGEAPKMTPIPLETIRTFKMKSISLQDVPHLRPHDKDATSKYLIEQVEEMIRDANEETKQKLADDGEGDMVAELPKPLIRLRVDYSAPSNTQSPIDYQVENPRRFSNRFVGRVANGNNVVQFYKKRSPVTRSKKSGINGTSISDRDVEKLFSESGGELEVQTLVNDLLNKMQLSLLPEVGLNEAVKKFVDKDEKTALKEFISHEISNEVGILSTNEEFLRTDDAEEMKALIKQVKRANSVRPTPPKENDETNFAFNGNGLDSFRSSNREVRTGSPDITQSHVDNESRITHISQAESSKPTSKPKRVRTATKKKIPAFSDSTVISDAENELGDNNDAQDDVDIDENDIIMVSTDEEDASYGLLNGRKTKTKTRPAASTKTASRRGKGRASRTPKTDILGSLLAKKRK

The target of assay [6] is T4, S. cerevisiae Mre11 (LexA-Mre11) (S. cerevisiae, UniProt P32829 1-692).
T4 sequence (looked up): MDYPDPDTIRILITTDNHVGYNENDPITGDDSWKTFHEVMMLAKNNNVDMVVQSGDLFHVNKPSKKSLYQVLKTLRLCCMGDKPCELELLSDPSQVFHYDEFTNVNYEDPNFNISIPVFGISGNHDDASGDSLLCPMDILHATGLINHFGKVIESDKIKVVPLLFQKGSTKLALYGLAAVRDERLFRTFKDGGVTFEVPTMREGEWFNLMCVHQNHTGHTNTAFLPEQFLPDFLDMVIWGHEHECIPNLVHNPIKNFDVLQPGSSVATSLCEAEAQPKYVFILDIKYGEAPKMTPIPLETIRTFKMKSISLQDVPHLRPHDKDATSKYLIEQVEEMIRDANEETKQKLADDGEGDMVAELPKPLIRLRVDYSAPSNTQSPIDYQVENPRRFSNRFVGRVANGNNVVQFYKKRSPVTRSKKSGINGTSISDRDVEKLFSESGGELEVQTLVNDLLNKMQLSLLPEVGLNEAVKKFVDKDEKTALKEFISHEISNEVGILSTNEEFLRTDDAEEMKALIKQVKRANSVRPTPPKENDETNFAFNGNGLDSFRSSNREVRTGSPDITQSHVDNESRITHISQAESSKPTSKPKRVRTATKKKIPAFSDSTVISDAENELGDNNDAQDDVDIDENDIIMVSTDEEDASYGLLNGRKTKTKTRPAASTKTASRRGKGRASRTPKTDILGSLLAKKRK

The target in assay [7] is T5, Mre11^D16A (LexA-Mre11^D16A) (S. cerevisiae, UniProt P32829 1-692, D16A).
T5 sequence (looked up): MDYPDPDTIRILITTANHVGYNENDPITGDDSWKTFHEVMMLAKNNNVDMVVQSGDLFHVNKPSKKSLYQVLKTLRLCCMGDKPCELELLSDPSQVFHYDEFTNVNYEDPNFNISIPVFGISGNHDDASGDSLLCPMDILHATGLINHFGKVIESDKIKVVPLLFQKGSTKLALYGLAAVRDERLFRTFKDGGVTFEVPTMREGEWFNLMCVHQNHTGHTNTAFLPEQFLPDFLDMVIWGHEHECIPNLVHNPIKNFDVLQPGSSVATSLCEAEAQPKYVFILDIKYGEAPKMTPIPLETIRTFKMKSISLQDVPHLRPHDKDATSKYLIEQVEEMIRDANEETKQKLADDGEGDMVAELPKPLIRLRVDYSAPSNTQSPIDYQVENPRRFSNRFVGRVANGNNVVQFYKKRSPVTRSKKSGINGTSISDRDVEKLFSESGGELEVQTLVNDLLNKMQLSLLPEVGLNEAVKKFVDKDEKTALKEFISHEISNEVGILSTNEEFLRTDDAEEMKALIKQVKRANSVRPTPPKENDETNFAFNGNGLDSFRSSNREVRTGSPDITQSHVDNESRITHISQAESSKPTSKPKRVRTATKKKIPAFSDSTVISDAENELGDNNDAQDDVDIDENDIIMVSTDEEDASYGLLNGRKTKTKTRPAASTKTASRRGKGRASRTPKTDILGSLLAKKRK

The target of assay [8] is T3, Mre11^I158R (LexA-Mre11^I158R). This is another data set of the same source.
Assay [9] addresses T4, S. cerevisiae Mre11 (LexA-Mre11). The source holds these as a separate data set.

“Smt3 (Gal4AD-Smt3) (from UniProt Q12306 1-101) (natural protein)”: the values for the two-hybrid β-galactosidase activity (β-galactosidase units) in assay [1] and in assay [2] were 71.9 and 38.8, respectively.
Consider “Smt3-allR (Gal4AD-Smt3^allR) (from UniProt Q12306 1-101) (natural protein)”, for which the two-hybrid β-galactosidase activity (β-galactosidase units) was 21.8 in assay [1] and 5.4 in assay [2].

B1: Smt3 (Gal4AD-Smt3) (natural protein, S. cerevisiae, UniProt Q12306 1-101, looked up)
chain: MSDSEVNQEAKPEVKPEVKPETHINLKVSDGSSEIFFKIKKTTPLRRLMEAFAKRQGKEMDSLRFLYDGIRIQADQTPEDLDMEDNDIIEAHREQIGGATY
In the case of B1, the entries for the “two-hybrid β-galactosidase activity” value in assay [3] and in [4] were 51.7 ± 3.1 β-galactosidase units and 60.1 ± 3.6 β-galactosidase units, respectively.

B2: Xrs2 (Gal4AD-Xrs2) (natural protein, S. cerevisiae, UniProt P33301 1-854, looked up)
chain: MWVVRYQNTLEDGSISFISCCLQAFKTYSIGRSSKNPLIIKNDKSISRQHITFKWEINNSSDLKHSSLCLVNKGKLTSLNKKFMKVGETFTINASDVLKSTIIELGTTPIRIEFEWINEVWNIPPHLTQFRTMLSEYGISTEISINDIPANLMISDYPKSEDNSIRELYALVSTIPMKKSRFLMELCNTLLPTSKTNLKFDEMWNDMISNPEYNVFDFDPNILLSKFMRLNNIRVLTTIKSEPRLSSLLRTFNINLFAFDNIDSLYKYVDSLEASTEYLILTTTDKKENGKILCTIKTMLTSIIDGTLSAVINMKGASSRTLDNGKFDQISEGMSTILKTSRAPEVEASPVVSKKRKLNRRRVLPLDSLDFFAGGLSTKTLSENRSLTDAKRLNCGAESKTVISSPNIAEADEKHAPFLQNALKPTEDIGKKSGHSSPGAIIVSSPNLGTVNTSEDSLDKSLQSHKLPQPSLPEVAGIGSQTISSNSADYETAAVNSMDDAEVTKNFRVNHHQNIEQPSKNIRKLSNYSREISSPLQENCKSPVKELSIKEKSGTPHAFVEAIQETKNREVKRVKSTIVELKDEELSEEAINQLKNLAIVEPSNNLLRKSFDSEGNKTSRTTEKWENSLMEPEWHKRKNFKTFVKVRPKSKAHKEEGKNNTQSSDFIRNAAFLITRNYVPLKKYSKKDTTTKWGTEENEDMFALTEMERFGSNTFMSDNINSNTIQKRSQALNRFTNEDSSNEGEEDSFSFSRCSGTAASVQPLKNKIFITDEDDLGDIDDKSDRLNHRENNRNLFVVKEMNLRPNLSEECSKQSRHSRSATSRSRGSFGASNNGDGDDDDDDGPKFTFKRRKG
For the molecule B2, the “two-hybrid β-galactosidase activity” value in assay [5] was 35.1 ± 1 β-galactosidase units; in [6], 125 ± 9.5 β-galactosidase units; in [3], 162 ± 6.4 β-galactosidase units; in assay [4], 153 ± 4.7 β-galactosidase units; in assay [7], 76.2 ± 7 β-galactosidase units; in assay [8] it was 37.9 ± 4 β-galactosidase units. The “two-hybrid β-galactosidase activity” value in assay [9] was 188 ± 8.5 β-galactosidase units.
